# Laboratory results taken from patent publication US20050282743A1, “Molecular interactions in cells” (Arbor Vita Corporation, priority 2001, published 2005).
# Read-outs that look alike come from different tables or passages of the source.
# T1: GST-KIAA0973 PDZ domain 1 (Homo sapiens (Human)), Q9Y2H9
# T1 chain: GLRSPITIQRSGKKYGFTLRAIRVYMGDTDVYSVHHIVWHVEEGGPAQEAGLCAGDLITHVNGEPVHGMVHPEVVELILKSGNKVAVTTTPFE
# T2: GST-KIAA1095 PDZ domain 1 (Homo sapiens (Human)), Q9UPQ7
# T2 chain: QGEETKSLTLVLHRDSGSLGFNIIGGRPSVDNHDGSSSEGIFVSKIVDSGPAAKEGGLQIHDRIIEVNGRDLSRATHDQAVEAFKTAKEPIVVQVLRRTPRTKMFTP
# T3: GST-Shank 3 PDZ domain 1 (human (hypothetical, computer cloned)), Q9BYB0
# T3 chain: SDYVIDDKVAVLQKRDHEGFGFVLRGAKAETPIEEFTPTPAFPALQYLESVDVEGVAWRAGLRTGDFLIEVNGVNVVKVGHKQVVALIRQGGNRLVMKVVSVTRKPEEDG
# T4: GST-NOS1 PDZ domain 1 (Homo sapiens (Human)), P29475
# T4 chain: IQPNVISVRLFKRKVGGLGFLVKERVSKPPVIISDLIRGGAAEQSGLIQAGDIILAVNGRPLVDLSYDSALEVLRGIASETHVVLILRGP
# T5: GST-FLJ11215 PDZ domain 1 (Mus musculus (Mouse)), O88952
# T5 chain: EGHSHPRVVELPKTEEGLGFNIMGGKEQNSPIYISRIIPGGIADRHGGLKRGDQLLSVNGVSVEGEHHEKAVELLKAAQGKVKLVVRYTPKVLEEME
# T6: GST-LIMK1 PDZ domain 1 (Homo sapiens (Human)), P53667
# T6 chain: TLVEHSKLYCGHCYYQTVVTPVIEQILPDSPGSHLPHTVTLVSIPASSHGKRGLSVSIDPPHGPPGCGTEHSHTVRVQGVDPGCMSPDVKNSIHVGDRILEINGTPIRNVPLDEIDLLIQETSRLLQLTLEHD
# T7: GST-PSD95 PDZ domain 3 (Homo sapiens)
# T7 chain: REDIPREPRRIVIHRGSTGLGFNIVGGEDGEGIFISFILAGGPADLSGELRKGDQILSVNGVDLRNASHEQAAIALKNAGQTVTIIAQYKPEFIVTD
# T8: GST-DVL2 PDZ domain 1 (Homo sapiens (Human)), O14641
# T8 chain: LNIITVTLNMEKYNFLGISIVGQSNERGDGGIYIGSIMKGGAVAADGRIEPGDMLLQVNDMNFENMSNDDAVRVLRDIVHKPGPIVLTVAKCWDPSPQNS
# T9: GST-MUPP1 PDZ domain 3 (Homo sapiens (Human)), O75970
# T9 chain: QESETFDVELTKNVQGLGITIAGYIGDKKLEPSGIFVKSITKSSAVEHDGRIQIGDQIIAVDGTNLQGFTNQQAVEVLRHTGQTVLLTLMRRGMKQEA
# T10: GST-ZO-3 PDZ domain 3 (Homo sapiens (Human)), O95049
# T10 chain: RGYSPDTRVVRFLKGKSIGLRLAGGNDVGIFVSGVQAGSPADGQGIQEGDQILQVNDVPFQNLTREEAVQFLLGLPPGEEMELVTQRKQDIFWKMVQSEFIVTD
# T11: GST-Atrophin-1 Interacting Protein PDZ domain 6 (Rattus norvegicus (Rat)), O88382
# T11 chain: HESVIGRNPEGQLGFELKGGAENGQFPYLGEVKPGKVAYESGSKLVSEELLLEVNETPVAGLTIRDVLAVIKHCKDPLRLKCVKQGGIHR
# T12: GST-DLG5 PDZ domain 2 (Homo sapiens (Human)), Q8TDM6
# T12 chain: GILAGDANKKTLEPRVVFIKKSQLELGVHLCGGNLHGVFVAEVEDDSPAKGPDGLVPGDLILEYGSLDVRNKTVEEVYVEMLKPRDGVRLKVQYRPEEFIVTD
# T13: GST-X-11 beta PDZ domain 1 (Rattus norvegicus (Rat)), O35431
# T13 chain: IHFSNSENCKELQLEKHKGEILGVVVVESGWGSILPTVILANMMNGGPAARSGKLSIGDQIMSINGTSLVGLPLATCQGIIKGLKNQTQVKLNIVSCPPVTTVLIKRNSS
# T14: GST-ZO-3 PDZ domain 2 (Homo sapiens (Human)), O95049
# T14 chain: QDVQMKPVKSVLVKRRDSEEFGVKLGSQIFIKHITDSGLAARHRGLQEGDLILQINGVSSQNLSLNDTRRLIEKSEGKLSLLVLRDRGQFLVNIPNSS
# T15: GST-KIAA0380 PDZ domain 1 (Homo sapiens (Human)), O15085
# T15 chain: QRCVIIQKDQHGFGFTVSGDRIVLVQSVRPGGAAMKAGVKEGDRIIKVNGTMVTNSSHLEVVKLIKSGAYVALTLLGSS
# Experiments:
# Assay in all cases: G' assay
# [1] = target: T1, GST-KIAA0973 PDZ domain 1 (Homo sapiens …)
# [2] = target: T2, GST-KIAA1095 PDZ domain 1 (Homo sapiens …)
# [3] = target: GST-KIAA1634 PDZ domain 1 (Homo sapiens (Human)), Q5TCQ9
# [4] = target: T3, GST-Shank 3 PDZ domain 1 (human …)
# [5] = target: GST-KIAA0316 PDZ domain 1 (Homo sapiens (Human)), Q14CM0
# [6] = target: T4, GST-NOS1 PDZ domain 1 (Homo sapiens …)
# [7] = target: GST-Unnamed Protein PDZ domain 2 [GST: P08515]
# [8] = target: T5, GST-FLJ11215 PDZ domain 1 (Mus musculus …)
# [9] = target: GST-KIAA1634 PDZ domain 4 (Homo sapiens (Human)), Q5TCQ9
# [10] = target: T6, GST-LIMK1 PDZ domain 1 (Homo sapiens …)
# [11] = target: T7, GST-PSD95 PDZ domain 3 (Homo sapiens)
# [12] = target: T8, GST-DVL2 PDZ domain 1 (Homo sapiens …)
# [13] = target: GST-KIAA1222 PDZ domain 1 (Rattus norvegicus (Rat)), O35867
# [14] = target: T9, GST-MUPP1 PDZ domain 3 (Homo sapiens …)
# [15] = target: T10, GST-ZO-3 PDZ domain 3 (Homo sapiens …)
# [16] = target: T11, GST-Atrophin-1 Interacting Protein PDZ …
# [17] = target: GST-CARD14 PDZ domain 1 (Homo sapiens (Human)), Q9BXL6
# [18] = target: T12, GST-DLG5 PDZ domain 2 (Homo sapiens …)
# [19] = target: T13, GST-X-11 beta PDZ domain 1 (Rattus …)
# [20] = target: T14, GST-ZO-3 PDZ domain 2 (Homo sapiens …)
# [21] = target: T15, GST-KIAA0380 PDZ domain 1 (Homo sapiens …)
# [22] = remark: other sources report otherwise
# Also: key of the grades not given here.
# Sequence of GST-KIAA1634 PDZ domain 1 (Homo sapiens (Human)), Q5TCQ9 (Q5TCQ9 401-502): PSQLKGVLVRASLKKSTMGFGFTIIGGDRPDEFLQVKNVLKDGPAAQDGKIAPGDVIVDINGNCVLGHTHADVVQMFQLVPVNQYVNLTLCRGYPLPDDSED
# Sequence of GST-KIAA1634 PDZ domain 4 (Homo sapiens (Human)), Q5TCQ9 (Q5TCQ9 844-945): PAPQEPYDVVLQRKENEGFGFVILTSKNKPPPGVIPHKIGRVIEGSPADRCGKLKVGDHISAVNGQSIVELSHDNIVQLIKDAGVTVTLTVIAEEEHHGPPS
# Sequence of GST-KIAA1222 PDZ domain 1 (Rattus norvegicus (Rat)), O35867 (O35867 499-598, tags or fused parts left off): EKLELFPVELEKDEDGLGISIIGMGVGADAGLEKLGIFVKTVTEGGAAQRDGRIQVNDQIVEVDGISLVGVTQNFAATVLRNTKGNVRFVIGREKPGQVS
# Sequence of GST-KIAA0316 PDZ domain 1 (Homo sapiens (Human)), Q14CM0 (Q14CM0 72-159): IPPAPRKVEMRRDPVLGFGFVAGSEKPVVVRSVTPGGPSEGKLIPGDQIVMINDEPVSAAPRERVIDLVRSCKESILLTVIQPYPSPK
# Sequence of GST-CARD14 PDZ domain 1 (Homo sapiens (Human)), Q9BXL6 (Q9BXL6 565-664): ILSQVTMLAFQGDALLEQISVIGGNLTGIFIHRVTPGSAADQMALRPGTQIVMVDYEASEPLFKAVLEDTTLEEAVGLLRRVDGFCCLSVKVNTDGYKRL
# Sequence of GST-Unnamed Protein PDZ domain 2 [GST: P08515] (P08515 whole entry, the tested form may be a part): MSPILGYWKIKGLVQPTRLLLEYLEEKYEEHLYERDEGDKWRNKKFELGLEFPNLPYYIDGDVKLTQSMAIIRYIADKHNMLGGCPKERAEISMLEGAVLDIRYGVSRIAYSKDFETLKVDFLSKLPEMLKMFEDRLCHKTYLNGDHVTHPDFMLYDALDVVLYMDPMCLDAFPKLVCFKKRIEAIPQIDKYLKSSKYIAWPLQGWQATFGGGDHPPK
binder,measurement,setting,value
PIPAGGCTFSGIFPTLTSPL (modifications not checked) [KIA 1481],Classification,[1],2 A450 class
same,Classification,[2],1 A450 class
same,Classification,[3],2 A450 class
same,Classification,[4],3 A450 class
AWDDSARAAGGQGLHVTAL (modifications not checked) [LPAP],Classification,[5]; [22],1 A450 class
same,Classification,[6]; [22],1 A450 class
same,Classification,[4],3 A450 class
same,Classification,[7],3 A450 class
QISPGGLEPPSEKHFRETEV (modifications not checked) [TAX],Classification,[8],1 A450 class
same,Classification,[3],5 A450 class
same,Classification,[9],2 A450 class
same,Classification,[10],1 A450 class
same,Classification,[11],1 A450 class
KTMPAAMYRLLTAQEQPVYI (modifications not checked) [MINT-1],Classification,[12],2 A450 class
same,Classification,[13],1 A450 class
same,Classification,[14],3 A450 class
same,Classification,[6],4 A450 class
same,Classification,[15],1 A450 class
PYSELNYETSHYPASPDSWV (modifications not checked) [catenin - delta 2],Classification,[15],3 A450 class
HDFRRAFKKILARGDRKRIV (modifications not checked) [alpha-2A Adrenergic receptor],Classification,[16],1 A450 class
same,Classification,[17],1 A450 class
same,Classification,[18],1 A450 class
same,Classification,[7],1 A450 class
same,Classification,[19],2 A450 class
same,Classification,[20],3 A450 class
TQGFPGPATWRRISSLESEV (modifications not checked) [NMDA Glutamate Receptor 2C (cysteine-free)],Classification,[8],1 A450 class
same,Classification,[21],1 A450 class
same,Classification,[1],1 A450 class
same,Classification,[2],1 A450 class
same,Classification,[3],5 A450 class
same,Classification,[9],1 A450 class
same,Classification,[10],1 A450 class
same,Classification,[6],1 A450 class
same,Classification,[11],2 A450 class
ILNSIQVMRAQMNQIQSVEV (modifications not checked) [ephrin B2],Classification,[16],1 A450 class
same,Classification,[17],1 A450 class
same,Classification,[18],1 A450 class
same,Classification,[1],2 A450 class
same,Classification,[14],1 A450 class
same,Classification,[19],2 A450 class
same,Classification,[20],2 A450 class
same,Classification,[15],1 A450 class
VGTLLLERVIFPSVKIATLV (modifications not checked) [AdenoE4 typ9],Classification,[13],1 A450 class
same,Classification,[3],5 A450 class
same,Classification,[9],4 A450 class
same,Classification,[6],5 A450 class
"ELLQFCRTPNPALKNGQYWV (modifications not checked) [CSPG4 (chondroitin sulfae proteoglycan 4, melanoma-associated)]",Classification,[12],5 A450 class
same,Classification,[3],5 A450 class
same,Classification,[6],2 A450 class
same,Classification,[15],5 A450 class
VPGALDYAAFSSALYGESDL (modifications not checked) [a-actinin 2],Classification,[5],1 A450 class
same,Classification,[21],1 A450 class
same,Classification,[1],2 A450 class
